What was measured:
Test in all cases: ELISA, immobilised recombinant L7/L12 (10 ng/mL), antibody 10 ug/mL
[1] = target: レジオネラ・ニューモフィラ(LP)のリボソームタンパク質L7/L12 (レジオネラ・ニューモフィラ (Legionella pneumophila))
[2] = target: クレブシエラ・ニューモニエ(KP)のリボソームタンパク質L7/L12 (クレブシエラ・ニューモニエ (Klebsiella pneumoniae))
[3] = target: 溶連菌(SPY)のリボソームタンパク質L7/L12 (溶連菌 (Streptococcus pyogenes))
[4] = target: カンピロバクター・ジェジュニ(CJ)のリボソームタンパク質L7/L12 (カンピロバクター・ジェジュニ (Campylobacter jejuni))
[5] = target: リステリア・モノサイトゲネス(LM)のリボソームタンパク質L7/L12 (リステリア・モノサイトゲネス (Listeria monocytogenes))
[6] = target: 淋菌(NG)のリボソームタンパク質L7/L12 (淋菌 (Neisseria gonorrhoeae))
[7] = target: 髄膜炎菌(NM)のリボソームタンパク質L7/L12 (髄膜炎菌 (Neisseria meningitidis))
[8] = target: サルモネラ菌(SE)のリボソームタンパク質L7/L12 (サルモネラ菌 (Salmonella enteritidis))
[9] = target: 黄色ブドウ球菌(SA)のリボソームタンパク質L7/L12 (黄色ブドウ球菌 (Staphylococcus aureus))
[10] = target: 緑膿菌(PA)のリボソームタンパク質L7/L12 (緑膿菌 (Pseudomonas aeruginosa))
[11] = target: モラキセラ菌(MC)のリボソームタンパク質L7/L12 (モラキセラ菌 (Moraxella catarrhalis))
[12] = target: 肺炎クラミジア(CP)のリボソームタンパク質L7/L12 (肺炎クラミジア (Chlamydia pneumoniae))
[13] = target: 肺炎マイコプラズマ(MP)のリボソームタンパク質L7/L12 (肺炎マイコプラズマ (Mycoplasma pneumoniae))
[14] = target: 肺炎球菌(SP)のリボソームタンパク質L7/L12 (肺炎球菌 (Streptococcus pneumoniae))
[15] = target: クラミジア・トラコマチス(CT)のリボソームタンパク質L7/L12 (クラミジア・トラコマチス (Chlamydia trachomatis))
[16] = target: 百日咳菌(BP)のリボソームタンパク質L7/L12 (百日咳菌 (Bordetella pertussis))

Measured: absorbance at 450 nm (absorbance (450 nm))

B1: 汎用性抗体B(LP54A3) (antibody, V domains shown)
VH: EVQLQQSGAELVKPGASVRLSCSASGFNIKDTYMHWMRQRPEQGLEWIGRIDPANGNAKYDPKFQVKATITADTSSNTASLQFSSLTSEDTAVYFCASESLDDMYYFDYWGQGTTLTVSS
VL: DIVMTQSQKFMSTSVGDRVSVTCKASQNVGVNVAWYQQKPGQSPKALIYSASYRYSGVPDRFTGSGSGTDFTLTISNVQSEDLAEYFCQQYHSYLYTFGGGTKLEIK
> 0.3: [1] | [2] | [3] | [4] | [5] | [6] | [7] | [8] | [9] | [10] | [11] | [12] | [13] | [14] | [15] | [16]

B2: 汎用性抗体A(PA51B2) (antibody, V domains shown)
VH: QVQLQQPGSVLVRPGASVKLSCKPSGYTFTGSWMHWTKQRPGQGLEWIGEIHPYSGNTNYNEKFRVKATLTVDTSSSTTYVDLSSLTSDDSAVYYCASGDFDAGFTYWGQGTLVTVSA
VL: DIVLTQSPASLAVSLGRRATISCKASQSVDYDGDSYMNWYQQKPGQPPKLLIYVASNLESGIPARFSGSGSGTDFTLNIHPVEEEDAATYYCQQTNEDPFTFGAGTKLELK
> 0.3: [1]

B3: 汎用性抗体C(CP141A190.1) (antibody, V domains shown)
VH: QVQLQQPGAELVKPGASVKLSCKTSGYNFTSNWIHWVKQRPGQGLEWIGEINPSNGRANYNEKFKNKATLTVDKSSSTAFMHLSSLTSEDSAVYFCSRGDFDEGFTYWGQGTLVTVSA
VL: QIVLTQSPAIMSASLGERVTMTCTASSNVNSDYLHWYQQKPGSSPRLWIYTTSNLASGVPTRFSGNGSGTSYSLTISSMEAEDAATYYCHQYHRSPRTFGGGTKLEIK
> 0.3: [1]
